Results: PMC7711741
Read-outs that look alike come from different tables or passages of the source.

Columns and labels:
[1] = molecular target: mupain-1 (synthetic construct); conditions: cited from earlier work
[2] = molecular target: urokinase-type plasminogen activator (muPA) (Mus musculus) (UniProt P06869); conditions: cited from earlier work
[3] = molecular target: mupain-1 (synthetic construct); assay: SPR
[4] = molecular target: mupain-1 (synthetic construct)
[5] = molecular target: mupain-1 (synthetic construct); remark: listed apart in the source
[6] = molecular target: mupain-1 (synthetic construct); conditions: cited from earlier work; remark: listed apart in the source
[7] = molecular target: mupain-1 (synthetic construct); conditions: cited from earlier work; remark: listed apart in the source
[8] = molecular target: mupain-1 (synthetic construct); conditions: cited from earlier work; remark: listed apart in the source
[9] = molecular target: mupain-1 (synthetic construct); remark: listed apart in the source
[10] = molecular target: mupain-1 (synthetic construct); conditions: cited from earlier work; remark: listed apart in the source
[11] = molecular target: mupain-1 (synthetic construct); conditions: cited from earlier work; remark: listed apart in the source

Chain of plasma kallikrein, P03952 (P03952 391-638): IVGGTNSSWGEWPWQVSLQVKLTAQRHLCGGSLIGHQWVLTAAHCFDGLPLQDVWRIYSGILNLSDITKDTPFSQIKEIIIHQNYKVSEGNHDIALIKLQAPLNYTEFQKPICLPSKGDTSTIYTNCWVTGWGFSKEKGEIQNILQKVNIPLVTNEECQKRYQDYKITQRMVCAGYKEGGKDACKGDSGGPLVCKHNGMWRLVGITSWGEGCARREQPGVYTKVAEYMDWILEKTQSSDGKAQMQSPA
Chain of plasmin (from UniProt P00747) (P00747 581-810): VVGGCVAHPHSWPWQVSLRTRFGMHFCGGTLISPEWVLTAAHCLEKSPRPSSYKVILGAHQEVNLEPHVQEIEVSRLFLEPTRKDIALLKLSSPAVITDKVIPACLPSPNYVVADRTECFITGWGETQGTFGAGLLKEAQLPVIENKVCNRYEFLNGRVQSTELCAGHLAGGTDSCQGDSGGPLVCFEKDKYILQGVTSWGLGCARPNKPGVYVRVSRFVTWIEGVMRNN
Chain of plasma kallikrein, P26262 (P26262 391-638): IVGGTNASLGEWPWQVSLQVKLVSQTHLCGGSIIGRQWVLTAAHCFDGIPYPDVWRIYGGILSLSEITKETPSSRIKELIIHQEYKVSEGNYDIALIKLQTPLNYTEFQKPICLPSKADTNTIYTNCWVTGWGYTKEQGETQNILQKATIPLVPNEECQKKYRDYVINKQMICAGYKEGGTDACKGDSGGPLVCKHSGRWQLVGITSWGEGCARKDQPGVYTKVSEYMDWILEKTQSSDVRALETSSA
Chain of plasmin (from UniProt P20918) (P20918 582-812): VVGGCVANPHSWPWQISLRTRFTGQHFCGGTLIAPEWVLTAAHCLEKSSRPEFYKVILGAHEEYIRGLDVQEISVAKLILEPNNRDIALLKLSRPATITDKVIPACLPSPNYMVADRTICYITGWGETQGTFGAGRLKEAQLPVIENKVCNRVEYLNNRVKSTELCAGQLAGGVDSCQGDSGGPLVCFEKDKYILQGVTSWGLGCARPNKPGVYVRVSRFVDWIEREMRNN
Chain of urokinase-type plasminogen activator (P06869 157-178): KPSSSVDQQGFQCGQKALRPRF
Chain of urokinase-type plasminogen activator (muPA) (Mus musculus) (P06869 180-433): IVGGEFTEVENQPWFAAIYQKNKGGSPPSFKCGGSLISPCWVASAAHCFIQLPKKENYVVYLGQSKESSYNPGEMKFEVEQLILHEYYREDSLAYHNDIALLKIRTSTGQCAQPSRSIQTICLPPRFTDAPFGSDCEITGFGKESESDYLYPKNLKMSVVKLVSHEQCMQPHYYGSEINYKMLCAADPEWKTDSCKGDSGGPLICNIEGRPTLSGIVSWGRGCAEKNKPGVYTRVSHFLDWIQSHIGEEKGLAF
Chain of beta-trypsin (P00760 24-246): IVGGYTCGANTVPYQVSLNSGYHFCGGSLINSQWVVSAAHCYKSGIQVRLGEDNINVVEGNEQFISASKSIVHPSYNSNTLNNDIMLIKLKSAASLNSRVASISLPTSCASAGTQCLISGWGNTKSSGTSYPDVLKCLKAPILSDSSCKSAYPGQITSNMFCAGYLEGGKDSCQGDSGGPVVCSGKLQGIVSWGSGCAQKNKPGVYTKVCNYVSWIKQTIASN
Chain of factor XIa catalytic domain (P03951 388-625): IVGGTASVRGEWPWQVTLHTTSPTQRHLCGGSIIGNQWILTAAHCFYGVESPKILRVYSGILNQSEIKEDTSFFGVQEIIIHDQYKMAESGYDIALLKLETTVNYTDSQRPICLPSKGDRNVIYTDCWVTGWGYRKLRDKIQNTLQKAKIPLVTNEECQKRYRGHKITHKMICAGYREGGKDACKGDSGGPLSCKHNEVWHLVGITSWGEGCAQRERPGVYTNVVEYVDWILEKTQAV

For “urokinase-type plasminogen activator (from UniProt P06869)”, the Ki [1] is given as 0.55 µM.
For mupain-1, the Ki [2] is listed as 0.55 µM.
Work on plasma kallikrein, P03952 yielded a Kd [3] of over 1000 µM and a Ki [4] of over 1000 µM.
For plasma kallikrein, P26262, the Ki [5] was over 1000 µM.
For plasmin (from UniProt P00747), the Ki [6] is given as over 1000 µM.
In the case of plasmin (from UniProt P20918), the Ki [7] is given as over 1000 µM.
In the case of “urokinase-type plasminogen activator (from UniProt P00749)”, the Ki [8] is given as over 1000 µM.
Work on KLK1, P06870 yielded a Ki [9] of over 1000 µM.
For beta-trypsin (from UniProt P00760), the Ki [10] is given as 20.7 µM.
For “factor XIa catalytic domain (from UniProt P03951)”, the Ki [11] is listed as over 1000 µM.
